This note sets out measurements from patent US7279304B2, “Methods for preparation of macrocyclic molecules and macrocyclic molecules prepared thereby” (President and Fellows of Harvard College, priority 2000, dated 2007).

What all share (test): purified protein, by the assay type
Format in all cases: biochemical

Substrate in data set [1]: CC(=O)NCCSC(=O)[C@H](CC(C)C)NC(=O)[C@H](CCCN)NC(=O)[C@@H](Cc1ccccc1)NC(=O)[C@H](CC(C)C)NC(=O)[C@H](CCCN)NC(=O)[C@H](N)Cc1ccccc1
As to conditions: other: Table 2; cyclization of peptide-SNAC substrates of 6-14 amino acids. The procedure: (§1) Macrocyclization reactions were carried out in 25 mM MOPS, pH 7.0 in a total volume of 400 μL. Reactions were initiated by addition of TycC TE and quenched at various time points by the addition of 25 μL 1.7% TFA/water, flash frozen in liquid nitrogen and stored at −80° C. (for Ex. 13, reactions were quenched by the addition of sodium phosphate, pH 5.3, to 100 mM). The reactions were then thawed, 85 μL acetonitrile added, and analyzed by analytical HPLC with monitoring at 220 nm (20% to 80% acetonitrile in 0.1% TFA/water, or in 25 mM potassium phosphate, pH 5.3 for Ex. 13, over 35 minutes, Vydac protein and peptide C18 column). Initial rates were calculated using 1 minute time points. Peptide-SNAC and reaction product concentrations were determined for all Tyr-containing peptides based on the estimated extinction coefficient ε (280 nm)=1,280 M^−1 cm^−1, which agrees with the experimentally determined ε (280 nm) of Ex. 1. For peptide-SNACs not containing Tyr, ε (220 nm) was determined experimentally, and concentrations of corresponding cyclic products determined by assuming equal ε (220 nm) values for the peptide-SNAC and cyclic product.

Substrate in data set [2]: CC(=O)NCCSC(=O)[C@H](CC(C)C)NC(=O)[C@H](CCCN)NC(=O)[C@@H](NC(=O)[C@H](Cc1ccc(O)cc1)NC(=O)[C@H](CCC(N)=O)NC(=O)[C@H](CC(N)=O)NC(=O)[C@@H](Cc1ccccc1)NC(=O)[C@H](Cc1ccccc1)NC(=O)[C@H](C)NC(=O)[C@H](N)Cc1ccccc1)C(C)C
The settings on record: other: Table 1; macrocyclization of peptide-SNAC substrate; 25 mM MOPS, pH 7.0. The procedure: as §1

Substrate in data set [3]: CC(=O)NCCSC(=O)[C@H](CC(C)C)NC(=O)[C@H](CCCN)NC(=O)[C@@H](NC(=O)[C@H](Cc1ccc(O)cc1)NC(=O)[C@H](CCC(N)=O)NC(=O)[C@H](C)NC(=O)[C@@H](Cc1ccccc1)NC(=O)[C@H](Cc1ccccc1)NC(=O)[C@@H]1CCCN1C(=O)[C@H](N)Cc1ccccc1)C(C)C
As to conditions: other: Table 1; macrocyclization of peptide-SNAC substrate; 25 mM MOPS, pH 7.0. On the procedure: as §1

Substrate in data set [4]: CC(=O)NCCSC(=O)[C@H](CC(C)C)NC(=O)[C@H](CCCN)NC(=O)[C@@H](NC(=O)[C@H](Cc1ccc(O)cc1)NC(=O)[C@H](CCC(N)=O)NC(=O)[C@H](CC(N)=O)NC(=O)[C@@H](Cc1ccccc1)NC(=O)[C@H](C)NC(=O)[C@@H]1CCCN1C(=O)[C@H](N)Cc1ccccc1)C(C)C
As to conditions: other: Table 1; macrocyclization of peptide-SNAC substrate; 25 mM MOPS, pH 7.0. The procedure:
as §1

Substrate in data set [5]: CC(=O)NCCSC(=O)[C@H](CC(C)C)NC(=O)[C@H](CCCN)NC(=O)[C@@H](NC(=O)[C@H](CC(C)C)NC(=O)[C@@H]1CCCN1C(=O)[C@@H](Cc1ccccc1)NC(=O)[C@H](CC(C)C)NC(=O)[C@H](CCCN)NC(=O)[C@@H](NC(=O)[C@H](CC(C)C)NC(=O)[C@@H]1CCCN1C(=O)[C@H](N)Cc1ccccc1)C(C)C)C(C)C
As to conditions: other: Table 2; cyclization of peptide-SNAC substrates of 6-14 amino acids. The procedure: as §1

Substrate in data set [6]: CC(=O)NCCSC(=O)[C@H](CC(C)C)NC(=O)[C@H](CCCN)NC(=O)[C@@H](NC(=O)[C@H](CC(C)C)NC(=O)[C@@H](NC(=O)[C@@H]1CCCN1C(=O)[C@@H](Cc1ccccc1)NC(=O)[C@H](CC(C)C)NC(=O)[C@H](CCCN)NC(=O)[C@@H](NC(=O)[C@H](CC(C)C)NC(=O)[C@@H](NC(=O)[C@@H]1CCCN1C(=O)[C@H](N)Cc1ccccc1)C(C)C)C(C)C)C(C)C)C(C)C
As to conditions: other: Table 2; cyclization of peptide-SNAC substrates of 6-14 amino acids. The procedure: as §1

Substrate in data set [7]: CC(=O)NCCSC(=O)[C@H](CC(C)C)NC(=O)[C@H](CCCN)NC(=O)[C@@H](NC(=O)[C@H](Cc1ccc(O)cc1)NC(=O)[C@H](CCC(N)=O)NC(=O)[C@H](CC(N)=O)NC(=O)[C@@H](C)NC(=O)[C@H](Cc1ccccc1)NC(=O)[C@@H]1CCCN1C(=O)[C@H](N)Cc1ccccc1)C(C)C
As to conditions: other: Table 1; macrocyclization of peptide-SNAC substrate; 25 mM MOPS, pH 7.0. The procedure:
as §1

Substrate in data set [8]: CC(=O)NCCSC(=O)[C@H](CC(C)C)NC(=O)[C@H](CCCN)NC(=O)[C@@H](NC(=O)[C@H](Cc1ccc(O)cc1)NC(=O)[C@H](CCC(N)=O)NC(=O)[C@H](C)NC(=O)[C@H](CC(N)=O)NC(=O)[C@@H](Cc1ccccc1)NC(=O)[C@H](Cc1ccccc1)NC(=O)[C@@H]1CCCN1C(=O)[C@H](N)Cc1ccccc1)C(C)C
As to conditions: other: Table 1; macrocyclization of peptide-SNAC substrate; 25 mM MOPS, pH 7.0. On the procedure: as §1

Substrate in data set [9]: CC(=O)NCCSC(=O)[C@H](CC(C)C)NC(=O)[C@H](CCC(=O)O)NC(=O)[C@@H](NC(=O)[C@H](Cc1ccc(O)cc1)NC(=O)[C@H](CCC(N)=O)NC(=O)[C@H](CC(N)=O)NC(=O)[C@@H](Cc1ccccc1)NC(=O)[C@H](Cc1ccccc1)NC(=O)[C@@H]1CCCN1C(=O)[C@H](N)Cc1ccccc1)C(C)C
As to conditions: other: Table 1; macrocyclization of peptide-SNAC substrate; 25 mM MOPS, pH 7.0. On the procedure: as §1

Substrate in data set [10]: CC(=O)NCCSC(=O)[C@H](CC(C)C)NC(=O)[C@H](CCCN)NC(=O)[C@@H]1CCCN1C(=O)[C@@H](Cc1ccccc1)NC(=O)[C@H](CC(C)C)NC(=O)[C@H](CCCN)NC(=O)[C@@H]1CCCN1C(=O)[C@H](N)Cc1ccccc1
As to conditions: other: Table 2; cyclization of peptide-SNAC substrates of 6-14 amino acids. On the procedure: as §1

B1: TycC TE (excised TE domain protein from the tyrocidine NRPS) (Brevibacillus parabrevis) (protein)
chain: FESRYGTAILLNQETARNVFCFTPIGAQSVYYQKLAAEIQGVSLYSFDFIQDDNRMEQYIAAITAIDPSGPYTLMGYSSGGNLAFEVAKELEERGYGVTDIILFDSYWKDKAIERTVAETENDIAQLFAEIGENTEMFNMTQEDFQLYAANEFVKQSFVRKTVSYVMFHNNLVNTGMTTAAIHLIQSELEADEEAPVAAKWNESAWANATQRLLTYSGHGIHSRMLAGDYASQNASILQNILQELFILK
notes: excised TE domain protein from the tyrocidine NRPS (TycC TE); made in house
One may read the Km as the concentration of substrate that gives half-maximal velocity. Broadly, the kcat is the number of substrate molecules converted per active site and unit of time at saturation. Turning to B1, the Km was 4 µM in data set [1]; 3 µM in data set [2]; 6 µM in data set [3]; 6 µM in data set [4]; 6 µM in data set [5]; 5 µM in [6]. The Km was found to be 6 µM in [7], 20 µM in data set [8], 56 µM in data set [9] and 3 µM in data set [10]. For the same protein, the turnover number (kcat) in [1] was determined as 0.5 s⁻¹; in data set [5], 0.367 s⁻¹; in data set [6], 0.1 s⁻¹; in data set [10], 0.283 s⁻¹.
